Blank lines part the entries; values can stand above or below the molecule they belong to.
What was measured:
human PD-L1 (human) = human PD-L1 (human) (UniProt Q9NZQ7); assay: flow cytometry, transfected cells
[1] = target: human CD28, full-length, expressed on Expi293 cells (human) (UniProt P10747); assay: flow cytometry, transfected cells
human CD28 (human) = human CD28 (human) (UniProt P10747); assay: flow cytometry, transfected cells
[2] = target: human PD-L1, full-length, expressed on Expi293 cells (human) (UniProt Q9NZQ7); assay: flow cytometry, transfected cells
[3] = target: human CD28, full length, expressed on transfected Expi293 cells (human) (UniProt P10747); assay: flow cytometry, Expi293 cells transfected with human CD28

MFI (human PD-L1 (human)): 3000 MFI
Molecule: stacked IgV-Fc: Domain 1 ICOSL WT / Domain 2 CD80 WT (Fc fusion)

MFI [1]: 7920 MFI
Molecule: stacked IgV-Fc fusion: domain 1 ICOSL WT, domain 2 NKp30 WT

MFI ratio to WT CD80 (parental ratio) [1]: 0.1
Molecule: CD80 K36G/K37Q/M38I/L40M/F59L/E81V/L85R/K89N/A91T/F92P/K93V/R94L/E99G/T130A/N149S ECD-Fc (Fc fusion)

parental ratio (human CD28 (human)): 0.49
Molecule: variant ICOSL ECD-Fc T43A, N52H, N57Y, L74Q, D89G, V110D, F172S (Fc fusion)

MFI (human PD-L1 (human)): 1230 MFI
Molecule: stacked IgV-Fc: Domain 1 CD80 WT / Domain 2 ICOSL WT (Fc fusion)

MFI [1]: 1230 MFI
MFI [2]: 2660 MFI
Molecule: stacked IgV-Fc fusion: domain 1 CD80 WT, domain 2 ICOSL WT

MFI [1]: 6340 MFI
Molecule: stacked IgV-Fc fusion: domain 1 NKp30 WT, domain 2 ICOSL WT

MFI ratio to parental (WT ICOSL) [3]: 0.89
B1: ICOSL F120S/Y152H/N201S variant ECD-Fc fusion (Fc fusion)
chain: DTQEKEVRAMVGSDVELSCACPEGSRFDLNDVYVYWQTSESKTVVTYHIPQNSSLENVDSRYRNRALMSPAGMLRGDFSLRLFNVTPQDEQKFHCLVLSQSLGFQEVLSVEVTLHVAANSSVPVVSAPHSPSQDELTFTCTSINGYPRPNVHWINKTDNSLLDQALQNDTVFLNMRGLYDVVSVLRIARTPSVNIGCCIESVLLQQNLTVGSQTGNDIGERDKITENPVSTGEKNAATAAAEPKSSDKTHTCPPCPAPELLGGPSVFLFPPKPKDTLMISRTPEVTCVVVDVSHEDPEVKFNWYVDGVEVHNAKTKPCEEQYGSTYRCVSVLTVLHQDWLNGKEYKCKVSNKALPAPIEKTISKAKGQPREPQVYTLPPSREEMTKNQVSLTCLVKGFYPSDIAVEWESNGQPENNYKTTPPVLDSDGSFFLYSKLTVDKSRWQQGNVFSCSVMHEALHNHYTQKSLSLSPGK
